Source: patent US20190315842A1

How the values were obtained:
[1] = molecular target: histones; test: AtheNA Multi-Lyte ANA, Ab at 25 ug/ml
[2] = molecular target: systemic lupus erythematosus autoantigen SSB (UniProt P05455); test: AtheNA Multi-Lyte ANA, Ab at 25 ug/ml
[3] = molecular target: Sm (sphingomyelin); test: AtheNA Multi-Lyte ANA, Ab at 25 ug/ml
[4] = molecular target: centromere B (CentB) (UniProt P07199); test: AtheNA Multi-Lyte ANA, Ab at 25 ug/ml
[5] = molecular target: systemic lupus erythematosus autoantigen SSA; test: AtheNA Multi-Lyte ANA, Ab at 25 ug/ml
[6] = molecular target: histidine-tRNA ligase (Jo-1) (UniProt P12081); test: AtheNA Multi-Lyte ANA, Ab at 25 ug/ml
[7] = molecular target: sclerosis autoantigen (Scl-70) (UniProt P11387); test: AtheNA Multi-Lyte ANA, Ab at 25 ug/ml
[8] = molecular target: ribonucleoprotein (RNP); test: AtheNA Multi-Lyte ANA, Ab at 25 ug/ml
[9] = molecular target: histones; test: AtheNA Multi-Lyte ANA, Ab at 50 ug/ml
[10] = molecular target: systemic lupus erythematosus autoantigen SSB (UniProt P05455); test: AtheNA Multi-Lyte ANA, Ab at 50 ug/ml
[11] = molecular target: Sm (sphingomyelin); test: AtheNA Multi-Lyte ANA, Ab at 50 ug/ml
[12] = molecular target: centromere B (CentB) (UniProt P07199); test: AtheNA Multi-Lyte ANA, Ab at 50 ug/ml
[13] = molecular target: systemic lupus erythematosus autoantigen SSA; test: AtheNA Multi-Lyte ANA, Ab at 50 ug/ml
[14] = molecular target: histidine-tRNA ligase (Jo-1) (UniProt P12081); test: AtheNA Multi-Lyte ANA, Ab at 50 ug/ml
[15] = molecular target: sclerosis autoantigen (Scl-70) (UniProt P11387); test: AtheNA Multi-Lyte ANA, Ab at 50 ug/ml
[16] = molecular target: ribonucleoprotein (RNP); test: AtheNA Multi-Lyte ANA, Ab at 50 ug/ml

Sequence of centromere B (CentB) (P07199 2-599): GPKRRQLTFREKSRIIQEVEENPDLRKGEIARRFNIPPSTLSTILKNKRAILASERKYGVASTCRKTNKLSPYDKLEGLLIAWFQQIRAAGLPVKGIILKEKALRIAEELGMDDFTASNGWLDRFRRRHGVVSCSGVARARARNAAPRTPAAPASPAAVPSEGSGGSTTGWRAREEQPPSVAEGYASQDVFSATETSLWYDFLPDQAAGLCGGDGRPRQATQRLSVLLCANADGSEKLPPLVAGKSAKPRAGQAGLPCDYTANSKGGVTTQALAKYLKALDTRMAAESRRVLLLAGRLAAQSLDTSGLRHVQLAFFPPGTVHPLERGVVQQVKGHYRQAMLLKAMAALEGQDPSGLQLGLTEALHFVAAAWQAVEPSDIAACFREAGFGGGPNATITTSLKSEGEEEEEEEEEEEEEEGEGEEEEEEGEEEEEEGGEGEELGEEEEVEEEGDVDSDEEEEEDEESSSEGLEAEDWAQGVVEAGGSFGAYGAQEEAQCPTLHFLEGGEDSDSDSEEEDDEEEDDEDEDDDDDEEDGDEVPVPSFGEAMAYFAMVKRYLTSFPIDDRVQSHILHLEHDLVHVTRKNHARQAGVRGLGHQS
Sequence of systemic lupus erythematosus autoantigen SSB (P05455 whole entry): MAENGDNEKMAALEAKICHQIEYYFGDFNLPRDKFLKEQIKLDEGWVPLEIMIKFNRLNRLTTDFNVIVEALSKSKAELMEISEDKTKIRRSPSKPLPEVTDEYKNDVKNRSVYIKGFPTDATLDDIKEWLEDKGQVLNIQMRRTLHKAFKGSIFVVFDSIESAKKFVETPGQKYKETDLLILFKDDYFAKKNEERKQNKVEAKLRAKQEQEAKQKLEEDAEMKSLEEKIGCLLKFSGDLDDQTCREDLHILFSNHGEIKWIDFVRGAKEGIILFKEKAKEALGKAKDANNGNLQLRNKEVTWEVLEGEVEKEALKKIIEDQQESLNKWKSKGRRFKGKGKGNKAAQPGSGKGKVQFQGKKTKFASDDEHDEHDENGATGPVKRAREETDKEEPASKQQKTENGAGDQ
Sequence of sclerosis autoantigen (Scl-70) (P11387 2-765 limits assumed): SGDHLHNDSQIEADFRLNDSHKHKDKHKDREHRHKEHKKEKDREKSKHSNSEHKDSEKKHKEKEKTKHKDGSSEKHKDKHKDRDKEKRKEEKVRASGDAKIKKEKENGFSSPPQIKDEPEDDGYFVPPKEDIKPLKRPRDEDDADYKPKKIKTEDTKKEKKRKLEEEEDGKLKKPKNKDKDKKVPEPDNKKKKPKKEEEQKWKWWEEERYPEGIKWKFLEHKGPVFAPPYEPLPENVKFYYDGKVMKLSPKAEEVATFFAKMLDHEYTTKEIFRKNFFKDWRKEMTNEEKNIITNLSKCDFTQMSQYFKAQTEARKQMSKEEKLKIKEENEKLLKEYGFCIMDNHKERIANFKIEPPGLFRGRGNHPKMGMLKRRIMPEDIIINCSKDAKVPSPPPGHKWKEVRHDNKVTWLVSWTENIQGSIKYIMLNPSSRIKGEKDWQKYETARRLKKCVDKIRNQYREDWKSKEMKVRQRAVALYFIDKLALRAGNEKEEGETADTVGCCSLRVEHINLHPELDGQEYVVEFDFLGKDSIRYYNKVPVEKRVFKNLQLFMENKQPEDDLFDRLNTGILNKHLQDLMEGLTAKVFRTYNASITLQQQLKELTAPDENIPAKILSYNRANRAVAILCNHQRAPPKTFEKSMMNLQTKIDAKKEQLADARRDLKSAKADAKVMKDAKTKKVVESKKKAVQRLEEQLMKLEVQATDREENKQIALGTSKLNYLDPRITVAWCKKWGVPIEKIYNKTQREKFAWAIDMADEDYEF
Sequence of histidine-tRNA ligase (Jo-1) (P12081 2-509): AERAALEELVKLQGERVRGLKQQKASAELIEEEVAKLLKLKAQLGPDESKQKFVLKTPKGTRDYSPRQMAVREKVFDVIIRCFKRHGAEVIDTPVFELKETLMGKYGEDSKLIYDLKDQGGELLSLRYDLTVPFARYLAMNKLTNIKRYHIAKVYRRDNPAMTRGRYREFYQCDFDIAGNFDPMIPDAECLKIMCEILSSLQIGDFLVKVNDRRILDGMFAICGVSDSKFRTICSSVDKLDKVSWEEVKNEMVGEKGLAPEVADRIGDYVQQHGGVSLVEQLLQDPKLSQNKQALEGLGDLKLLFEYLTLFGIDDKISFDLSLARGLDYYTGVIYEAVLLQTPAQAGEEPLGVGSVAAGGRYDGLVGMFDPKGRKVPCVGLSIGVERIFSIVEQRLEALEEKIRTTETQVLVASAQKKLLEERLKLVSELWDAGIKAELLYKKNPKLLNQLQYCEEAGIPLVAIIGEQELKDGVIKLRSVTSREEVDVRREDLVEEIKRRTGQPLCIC

AtheNA signal [1] | AtheNA signal [2] | AtheNA signal [3] | AtheNA signal [4] | AtheNA signal [5] | AtheNA signal [6] | AtheNA signal [7] | AtheNA signal [8] | AtheNA signal [9] | AtheNA signal [10] | AtheNA signal [11] | AtheNA signal [12] | AtheNA signal [13] | AtheNA signal [14] | AtheNA signal [15] | AtheNA signal [16] | Substance
15 | 157 | 7 | 7 | 75 | 124 | 3 | 13 | 20 | 184 | 11 | 12 | 92 | 149 | 3 | 18 | 4e10 (Anti HIV, NIH AIDS Reagent Program) (antibody)
1 | 6 | 2 | 1 | 2 | 1 | 2 | 3 | 2 | 5 | 4 | 1 | 0 | 1 | 1 | 1 | SYNAGIS (anti-RSV monoclonal antibody palivizumab)
